The source of these data is patent US20100266532A1, “METHODS FOR INHIBITING SCARRING” (Renovo Limited, priority 2007, published 2010).

The subject of experiment [1] is scars produced on healing of wounds. Description: Profilometry analysis of silicone moulds from scars, dosed twice approximately 24 hours apart. In kind it is in vivo, human. The text has this:
Note that this is not a method of treatment in accordance with the invention, but (along with FIG. 6) serves to provide comparative data illustrating the surprising effectiveness of a method of treatment in accordance with the invention.

Experiment [2] concerns human wounds. Description: Human study, two incidences of treatment approximately 24 hours apart, lay panel VAS scar scoring and macroscopic images. In kind it is in vivo. Here is the method: In this study, control treatments using TGFβ3 and Placebo were administered in two incidences of treatment (each by intradermal injection), the first prior to wounding and the second approximately 24 hours after wounding. […] To test the effect of control treatment with TGF-β3, ToScar of the TGFβ3 scar was subtracted from the anatomically matched Placebo ToScar on the other arm on each subject. ToScar was calculated as the sum of VAS scores (mm) from week 6 and months 3, 4, 5, 6 and 7. The scars were scored by an independent lay panel at 6 time points after dosing (week 6, months 3-7) using a 100 mm VAS line.
The macroscopic images are from within subject scars produced on healing of placebo treated and TGFβ3 control treated wounds (dosed twice with 50 ng, 200 ng or 500 ng/100 μl TGFβ3 per cm of wound margin in two incidences of treatment approximately 24 hours apart) in a clinical trial conducted by the inventors. The same amount of TGF-β3 was administered in each incidence of treatment, and the amounts used are shown in the captions (50 ng/100 μl TGFβ3 per cm of wound margin shown top left, with placebo from the same subject top right; 200 ng/100 μl TGFβ3 per cm of wound margin shown middle left, with placebo from the same subject middle right; and 500 ng/100 μl TGFβ3 per cm of wound margin shown bottom left, with placebo from the same subject bottom right).
TGFβ3 and Placebo were administered by means of intradermal injection in two incidences of treatment, the first prior to wounding and the second approximately 24 hours later. […] The scars were scored by an independent lay panel at 6 time points after dosing (week 6, months 3-7) using a 100 mm VAS line.

[3] abbreviates: dosed twice with 50 ng/100 μl per cm approximately 24 hours apart.
The mark [4] stands for this setting: dosed twice with 200 ng/100 μl per cm approximately 24 hours apart.

B1: TGF-β3: well-known anti-scarring growth factor, Sequence ID No. 1; labelled "Juvista" in FIGS. 8 and 9 (protein, listed as Homo sapiens)
chain: ALDTNYCFRNLEENCCVRPLYIDFRQDLGWKWVHEPKGYYANFCSGPCPYLRSADTTHSTVLGLYNTLNPEASASPCCVPQDLEPLTILYYVGRTPKVEQLSNMVVKSCKCS
With B1, in experiment [1] (setting [3]), the “reduction in scar surface area compared to placebo” value was determined as 30.21% and the scar surface area is given as 12.823 mm^2. In addition, in experiment [1] (setting [4]), the “reduction in scar raised volume compared to placebo” value is listed as 73.33%, the “reduction in scar surface area compared to placebo” value was 75.19%, the scar raised volume amounted to 0.0008 mm^3 and the scar surface area is recorded as 3.532 mm^2. For the same molecule, the “inhibition of scarring, 3-dimensional simulations” value in experiment [1] (dosed twice with 500 ng/100 μl per cm approximately 24 hours apart) is given as “Maximal inhibition of scarring”. In addition, the “effectiveness relative to other doses” value in experiment [2] (500 ng in each of two incidences of treatment separated by 24 hours) is listed as “notably more effective than the others”. Also, the “effectiveness relative to other doses (mean VAS scores over time)” value in experiment [2] (500 ng per centimetre in each incidence of treatment, approximately 24 hours apart) is “surprisingly more effective than the other methods of treatment”. In addition, in experiment [2] (500 ng/100 μl per cm twice approximately 24 hours apart (highest dose), versus 50 and 200 ng), the “inhibition of scarring, macroscopic images” value was “greatest inhibition of scarring achieved”. In addition, the inhibition of scarring entry in experiment [2] (two applications of 5, 50, 200 and 500 ng/100 μl per cm, prior to and approximately 24 hours post-wounding) is “effectively inhibited”. Also, in experiment [2] (two applications of 5, 50, 200 or 500 ng/100 μl per cm, prior to wounding and approximately 24 hour post-wounding, week 6 to month 7), the “inhibition of scarring (mean VAS scores over time)” value was “scarring is inhibited”.
